{"source": "paper PMC3236198", "target": "ΔC SSB (Escherichia coli) (UniProt P0AGE0)", "assay": "SEC"}
{"substance": "ΔC SSB (from UniProt P0AGE0 1-113) (domain or fragment)", "values": [{"measurement": "stoichiometry N", "result": 4}]}
